Patent US20250376539A1 (KIRA PHARMACEUTICALS SUZHOU, published 2025)

T1: recombinant human complement C2 (NP_000054.2), C-terminal 6His-tag, made in house (CHO cell expression) (human, UniProt P06681 21-752)
T1 construct: a linker before the tag is not described; also called human C2; Human C2
T1 sequence: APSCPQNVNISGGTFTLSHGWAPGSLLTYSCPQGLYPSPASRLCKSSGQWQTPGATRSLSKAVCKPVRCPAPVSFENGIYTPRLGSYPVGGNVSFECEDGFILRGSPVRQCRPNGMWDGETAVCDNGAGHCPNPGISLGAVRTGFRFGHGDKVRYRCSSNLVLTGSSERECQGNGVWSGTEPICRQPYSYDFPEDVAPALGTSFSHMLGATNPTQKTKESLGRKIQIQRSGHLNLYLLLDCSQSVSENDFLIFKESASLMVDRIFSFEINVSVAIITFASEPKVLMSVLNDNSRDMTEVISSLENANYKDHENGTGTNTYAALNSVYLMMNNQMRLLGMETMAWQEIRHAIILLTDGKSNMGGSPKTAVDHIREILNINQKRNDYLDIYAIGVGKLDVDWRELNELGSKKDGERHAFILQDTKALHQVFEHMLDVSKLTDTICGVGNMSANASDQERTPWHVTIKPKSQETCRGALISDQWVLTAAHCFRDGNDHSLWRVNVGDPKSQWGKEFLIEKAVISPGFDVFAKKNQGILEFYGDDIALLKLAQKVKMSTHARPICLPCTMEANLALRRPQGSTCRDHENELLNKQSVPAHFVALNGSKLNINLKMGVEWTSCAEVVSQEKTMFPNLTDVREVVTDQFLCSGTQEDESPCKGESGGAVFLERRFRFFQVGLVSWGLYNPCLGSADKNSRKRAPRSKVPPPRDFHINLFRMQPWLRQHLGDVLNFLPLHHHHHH

T2: recombinant cynomolgus (cyno) complement C2 (XP_005553508.1), C-terminal 6His-tag, made in house (CHO cell … (cynomolgus monkey (Macaca fascicularis), UniProt P06681 21-752 (human entry)))
T2 construct: also called cyno C2; Cyno C2
T2 chain: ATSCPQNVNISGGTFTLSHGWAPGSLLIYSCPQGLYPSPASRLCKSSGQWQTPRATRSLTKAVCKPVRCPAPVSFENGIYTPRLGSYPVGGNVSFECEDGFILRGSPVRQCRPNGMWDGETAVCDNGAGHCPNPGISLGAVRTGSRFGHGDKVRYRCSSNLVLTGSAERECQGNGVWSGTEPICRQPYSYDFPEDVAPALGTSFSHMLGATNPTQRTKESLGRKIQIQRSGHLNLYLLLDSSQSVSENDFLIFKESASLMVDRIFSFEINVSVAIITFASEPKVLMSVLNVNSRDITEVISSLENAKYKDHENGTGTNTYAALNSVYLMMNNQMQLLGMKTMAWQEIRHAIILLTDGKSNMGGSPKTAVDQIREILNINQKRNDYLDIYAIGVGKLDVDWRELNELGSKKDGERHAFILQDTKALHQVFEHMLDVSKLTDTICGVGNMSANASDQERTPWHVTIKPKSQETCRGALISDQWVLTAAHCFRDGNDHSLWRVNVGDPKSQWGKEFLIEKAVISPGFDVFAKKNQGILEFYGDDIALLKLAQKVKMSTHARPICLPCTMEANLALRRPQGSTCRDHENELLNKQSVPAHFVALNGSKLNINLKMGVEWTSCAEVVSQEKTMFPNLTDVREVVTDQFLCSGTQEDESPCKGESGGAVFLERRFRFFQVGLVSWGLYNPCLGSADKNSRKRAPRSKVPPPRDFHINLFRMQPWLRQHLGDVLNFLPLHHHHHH

T3: recombinant cyno C2a, C-terminal 6His-tag, made in house (CHO cell expression) (cynomolgus monkey, UniProt P06681 244-752 (human entry))
T3 chain: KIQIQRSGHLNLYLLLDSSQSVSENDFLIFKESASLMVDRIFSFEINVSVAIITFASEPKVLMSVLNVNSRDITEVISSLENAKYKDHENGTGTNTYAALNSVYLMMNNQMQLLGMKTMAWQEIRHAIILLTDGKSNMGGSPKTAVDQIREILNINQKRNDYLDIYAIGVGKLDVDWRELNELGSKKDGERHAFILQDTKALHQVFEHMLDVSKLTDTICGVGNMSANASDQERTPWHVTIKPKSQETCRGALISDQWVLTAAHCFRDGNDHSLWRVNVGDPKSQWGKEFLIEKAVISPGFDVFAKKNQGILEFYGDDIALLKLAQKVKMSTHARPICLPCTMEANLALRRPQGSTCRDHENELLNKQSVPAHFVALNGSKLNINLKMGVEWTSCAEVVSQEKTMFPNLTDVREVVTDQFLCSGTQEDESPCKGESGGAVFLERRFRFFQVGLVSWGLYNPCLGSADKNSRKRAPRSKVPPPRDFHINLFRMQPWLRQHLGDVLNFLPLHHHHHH

B1: anti-C2 antibody 69.44 (antibody, IgG4, V domains shown)
VH: QVQLVQSGAEVKKPGASVKVSCKASGYSFTTYYMYWVRQAPGQGLEWMGIITPSGGSTTYAQKFQDRVTMTRDASTTTVYMELSSLRSEDTAVYYCARGYEGSYGFDHWGQGTLVTVSS
VL: SYELTQPPSVSLSPGQTASITCSGDKLGNKYTCWYQQKPGQSPVLVIYQDNKRPSGIPERFSGSNSGNTATLTISGTQAMDEADYYCQTWDSSTAVFGGGTKLTVL
notes: Recombinant
B2: anti-C2 antibody 3.2 (antibody, IgG4, V domains shown)
VH: EVQLLESGGGLVQPGGSLRLSCAASGFTFRHYAMSWVRQAPGKGLEWVSLISGSGASTFYADSVKGRFTISRDNSENMLYLQMNSLRAEDTAVYYCAKDSLAVAGSEYFQHWGQGTLVTVSS
VL: SYVLTQAPSVSVAPGQTARITCGGNYFGGKSVHWYQQRPGQAPVLVVYDDSDRPSGIPERFSGSKSGNTATLAISRVEAGDEAAYYCQVYDTSSDHWVFGGGTKLTVL
notes: Recombinant; also called WT; "WT" 3.2

Legend:
[1] = biological target: T1, recombinant human complement C2 …; assay: ELISA
[2] = biological target: T2, recombinant cynomolgus (cyno) …; assay: ELISA
[3] = biological target: T1, recombinant human complement C2 …; assay: BLI (Gator); ratio of dissociation at pH 5.8 to pH 7.4
Method: (§1) The histidine mutant constructs in Table 4 were tested for their pH-dependent dissociation from human C2. Probe-immobilized anti-C2 antibodies were incubated with C2 at pH 7.4 for 600s, followed by a 600s dissociation period in K Buffer at pH 7.4 or pH 5.8. The data were processed and analyzed by the Gator evaluation software.
(§2) Non-fusion mAb were used for comparison.

[4] = biological target: T1, recombinant human complement C2 …; assay: BLI (Gator), antibody on probe; 600 s association at pH 7.4, 600 s dissociation at pH 5.8
Method: as §1, §2

[5] = biological target: T2, recombinant cynomolgus (cyno) …; assay: as above
Method: as §1, §2

[6] = biological target: T3, recombinant cyno C2a, C-terminal …; assay: ELISA on cyno C2a, OD450nm against log Ab conc. (nmol/L)
[7] = biological target: T1, recombinant human complement C2 …; assay: BLI (Gator), antibody on probe; 600 s association at pH 7.4, 600 s dissociation at pH 7.4
Method: as §1

Row | Binder | EC50 [1] | EC50 [2] | Fold dissociation pH 5.8/pH 7.4 [3] | Dissociation (%) pH 5.8 [4] | Dissociation (%) pH 5.8 [5] | binding result [6] | Dissociation (%) pH 7.4 [7]
1 | B1 | 0.0474 nM | 0.0794 nM | 0.78 fold | 2.45% | 7.22% | – | –
2 | B2 | 0.0504 nM | 0.0478 nM | 1.97 fold | 10.4% | 14.5% | no binding (tested: 100 nmol/L) | 3.59%
